Measured values reported in US20200277374A1 (Alector, published 2020).
Blank lines part the entries; values can stand above or below the binder they belong to.

Tests used:
M30A = biological target: T1, M30A (human, UniProt Q9Y286); experiment: flow cytometry on HEK-293T cells expressing the mutant; mean % of wild-type signal (range of duplicates)
T1 construct: clone of the siglec-7 mutation library; also called Siglec-7 M30A
Method: (§1) Shotgun mutagenesis epitope mapping of anti-siglec-7 antibodies was performed using an alanine-scanning library for the siglec-7 protein. […] Each of residues 19 to 353 was mutated, representing the siglec-7 extracellular domain, most to alanine, while alanine codons were mutated to serine. In total, 335 siglec-7 mutant expression constructs were generated, sequences confirmed, and arrayed into a 384-well plate, one mutant per well.
(§2) Cells were then incubated with MAbs diluted in 10% o normal goat serum (NGS) (Sigma-Aldrich, St. Louis, Mo.). Prior to library screening, primary MAb concentrations were determined using an independent immunofluorescence titration curve against cells expressing wild-type siglec-7 to ensure that signals were within the linear range of detection. MAbs were detected using 3.75 μg/ml AlexaFluor488-conjugated secondary antibody (Jackson immunoResearch Laboratories, Westgrove, Pa.) in 10% NGS. Cells were washed twice with PBS−/− and resuspended in Cellstripper (Cellgro, Manassas, Va.) with 0.1% BSA (Sigma-Aldrich, St. Louis, Mo.). Mean cellular fluorescence was detected using the Intellicyt high throughput flow cytometer (HTFC, Intellicyt, Albuquerque, N. Mex.). MAb reactivities against each mutant clone were calculated relative to wild-type siglec-7 protein reactivity by subtracting the signal from mock-transfected controls, and normalizing to the signal from wild-type siglec-7-transfected controls.

M185A = biological target: T2, M185A (human, UniProt Q9Y286); experiment: as above
T2 construct: clone of the siglec-7 mutation library; also called Siglec-7 M185A
Method: as §1, §2

K104A = biological target: T3, K104A (human, UniProt Q9Y286); experiment: as above
T3 construct: clone of the siglec-7 mutation library; also called Siglec-7 K104A
Method: as §1, §2

S47A = biological target: T4, S47A (human, UniProt Q9Y286); experiment: as above
T4 construct: clone of the siglec-7 mutation library; also called Siglec-7 S47A
Method: as §1, §2

R45A = biological target: T5, R45A (human, UniProt Q9Y286); experiment: as above
T5 construct: clone of the siglec-7 mutation library; also called Siglec-7 R45A
Method: as §1, §2

R124A [1] = biological target: T6, R124A (human, UniProt Q9Y286); experiment: as above
T6 construct: clone of the siglec-7 mutation library; also called Siglec-7 R124A
Method: as §1, §2

N81A = biological target: T7, N81A (human, UniProt Q9Y286); experiment: as above
T7 construct: clone of the siglec-7 mutation library; also called Siglec-7 N81A
Method: as §1, §2

F48A = biological target: T8, F48A (human, UniProt Q9Y286); experiment: as above
T8 construct: clone of the siglec-7 mutation library; also called Siglec-7 F48A
Method: as §1, §2

Q31A = biological target: T9, Q31A (human, UniProt Q9Y286); experiment: as above
T9 construct: clone of the siglec-7 mutation library; also called Siglec-7 Q31A
Method: as §1, §2

Y50A = biological target: T10, Y50A (human, UniProt Q9Y286); experiment: as above
T10 construct: clone of the siglec-7 mutation library; also called Siglec-7 Y50A
Method: as §1, §2

I72A = biological target: T11, I72A (human, UniProt Q9Y286); experiment: as above
T11 construct: clone of the siglec-7 mutation library; also called Siglec-7 I72A
Method: as §1, §2

T107A = biological target: T12, T107A (human, UniProt Q9Y286); experiment: as above
T12 construct: clone of the siglec-7 mutation library; also called Siglec-7 T107A
Method: as §1, §2

V44A = biological target: T13, V44A (human, UniProt Q9Y286); experiment: as above
T13 construct: clone of the siglec-7 mutation library; also called Siglec-7 V44A
Method: as §1, §2

W74A = biological target: T14, W74A (human, UniProt Q9Y286); experiment: as above
T14 construct: clone of the siglec-7 mutation library; also called Siglec-7 W74A
Method: as §1, §2

R124A [2] = biological target: T6, R124A; experiment: flow cytometry on HEK-293T cells expressing the mutant, mock signal subtracted
Method: as §1
as §2, with “Cells were washed twice with PBS−/− and resuspended in Cellstripper (Cellgro, Manassas, Va.) with 0.1% BSA (Sigma-Aldrich, St. Louis, Mo.).” left out

[3] = biological target: T15, Histidine-tagged human Siglec-7 (NovoProtein) (human, UniProt Q9Y286 19-357, limits assumed); experiment: SPR (BiaCore T200, 25 C), antibody captured on anti-mouse IgG, Siglec-7-His 10 nM, single-concentration kinetics
T15 construct: Bought protein; also called purified Siglec-7-his tagged protein; not shown: histidine tag
Method: (§3) SPR data was collected at a rate of 10 Hz at 25′ C on a BiaCore T200 instrument. Data analysis was performed using BiaCore T200 Evaluation Software, version 2.0. HBS-EP+ (100 mM HEPES, 1.5 M NaCl, 30 mM EDTA, 0.5% v/v Surfactant P20, pH 7.4) was used as running buffer and for preparing reagents.
(§4) Mouse-derived antibodies (25 nM) against Siglec-7 were captured (60 s contact time, 30 μL/min flow rate, 0 s stabilization time) on a CM5 sensor chip (GE Healthcare) immobilized with anti-mouse IgG. Histidine-tagged human Siglec-7 (NovoProtein) was then flowed over the captured anti-Siglec-7 surface (120 s contact time, 30 μL/min flow rate, 300 s dissociation time). Concentration of antigen ranged from 5 nM to 100 nM, depending on information obtained from an initial screen. Duplicate single-concentration trials were performed and bracketed by a blank (0 nM antigen) sample. The chip surface was regenerated in between cycles using 10 mM glycine-HCl, pH1.7 (60 s contact time, 30 μL/min flow rate, 60 s stabilization time). The resulting SPR signal was obtained as the difference in response from measurements performed on a blank flow cell.
(§5) Affinity constants (KD) were calculated from the ratio kd/kₐ. For one antibody (clone 1E8), we validated the single-concentration analysis with a multiple-concentration approach (five concentrations of antigen used, plus one blank).

[4] = biological target: T16, human Siglec-7 expressed on human cells (primary monocytes, dendritic cells, macrophages, NK cells, … (human, UniProt Q9Y286 19-467)); experiment: cell-based or functional assay
[5] = biological target: T16, human Siglec-7 expressed on human cells …; experiment: cell-based or functional assay; remark: listed apart in the source
[6] = biological target: T17, Siglec-7-Fc (plate immobilized) (human, UniProt Q9Y286 19-357, limits assumed); experiment: RBC solid adhesion assay, plate-coated Siglec-7-Fc, antibody 0.5 or 1.0 ug/ml; % of RBC binding without antibody
T17 construct: also called Siglec-7-Fc protein; immobilized Siglec-7; not shown: Fc part
Outline: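 Plates coated overnight at RT with 5 μg/ml Siglec-7-Fc and blocked in PBS with BSA and 1 mM CaCl₂. Antibody (0.5 or 1.0 μg/ml) bound 1 h at RT, then RBCs (3.0×10⁶ cells/ml) added for 1 h at RT. Bound RBCs lysed and detected by peroxidase at 450 nm, expressed as % of binding without antibody.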

[7] = biological target: T16, human Siglec-7 expressed on human cells …; experiment: FACS, human primary monocytes, 10 ug/ml mAb
[8] = biological target: T16, human Siglec-7 expressed on human cells …; experiment: FACS, human primary macrophages, 10 ug/ml mAb
[9] = biological target: T16, human Siglec-7 expressed on human cells …; experiment: FACS, human primary dendritic cells, 10 ug/ml mAb
[10] = biological target: T15, Histidine-tagged human Siglec-7 …; experiment: SPR (BiaCore T200, 25 C), antibody captured on anti-mouse IgG, Siglec-7-His 5 nM, single-concentration kinetics
Method: as §3, §4, §5

[11] = biological target: T15, Histidine-tagged human Siglec-7 …; experiment: SPR (Biacore T200), antibody captured on anti-mouse IgG, 5 nM Siglec-7-his flowed over, single-concentration 1:1 fit, 25 C
Method: as §3, §4, §5

[12] = biological target: T15, Histidine-tagged human Siglec-7 …; experiment: SPR (BiaCore T200, 25 C), antibody captured on anti-mouse IgG, Siglec-7-His 50 nM, single-concentration kinetics
Method: as §3, §4, §5

T16 sequence (Q9Y286 19-467): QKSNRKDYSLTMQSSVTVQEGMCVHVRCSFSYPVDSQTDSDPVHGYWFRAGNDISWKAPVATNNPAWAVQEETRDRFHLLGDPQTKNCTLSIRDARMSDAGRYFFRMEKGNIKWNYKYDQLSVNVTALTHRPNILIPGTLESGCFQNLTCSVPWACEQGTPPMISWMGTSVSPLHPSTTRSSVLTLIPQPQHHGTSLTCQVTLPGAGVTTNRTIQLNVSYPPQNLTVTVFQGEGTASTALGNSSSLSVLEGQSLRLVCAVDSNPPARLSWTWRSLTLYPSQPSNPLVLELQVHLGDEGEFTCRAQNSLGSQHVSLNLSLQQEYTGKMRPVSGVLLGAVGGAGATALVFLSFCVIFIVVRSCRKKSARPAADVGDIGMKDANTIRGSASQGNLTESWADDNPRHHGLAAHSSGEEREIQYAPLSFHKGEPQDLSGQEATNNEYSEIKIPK
T15 sequence (Q9Y286 19-357 limits assumed): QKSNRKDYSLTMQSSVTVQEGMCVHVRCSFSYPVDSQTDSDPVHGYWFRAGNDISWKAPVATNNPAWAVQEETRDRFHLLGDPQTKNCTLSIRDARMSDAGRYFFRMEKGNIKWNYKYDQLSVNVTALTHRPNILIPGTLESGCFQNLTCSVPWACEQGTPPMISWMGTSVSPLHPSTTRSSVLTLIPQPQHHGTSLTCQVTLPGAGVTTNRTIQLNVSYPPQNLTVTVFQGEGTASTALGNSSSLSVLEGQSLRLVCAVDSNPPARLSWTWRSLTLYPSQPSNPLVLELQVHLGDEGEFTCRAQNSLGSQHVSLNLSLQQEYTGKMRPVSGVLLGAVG
T17 sequence (Q9Y286 19-357 limits assumed): as above
T6 sequence (Q9Y286 19-467 R124A limits assumed): as the sequence (Q9Y286 19-467) above, with R106A counted along it
T13 sequence (Q9Y286 19-467 V44A limits assumed): as the sequence (Q9Y286 19-467) above, with V26A counted along it
T12 sequence (Q9Y286 19-467 T107A limits assumed): as the sequence (Q9Y286 19-467) above, with T89A counted along it
T10 sequence (Q9Y286 19-467 Y50A limits assumed): as the sequence (Q9Y286 19-467) above, with Y32A counted along it
T2 sequence (Q9Y286 19-467 M185A limits assumed): as the sequence (Q9Y286 19-467) above, with M167A counted along it
T4 sequence (Q9Y286 19-467 S47A limits assumed): as the sequence (Q9Y286 19-467) above, with S29A counted along it
T7 sequence (Q9Y286 19-467 N81A limits assumed): as the sequence (Q9Y286 19-467) above, with N63A counted along it
T1 sequence (Q9Y286 19-467 M30A limits assumed): as the sequence (Q9Y286 19-467) above, with M12A counted along it
T8 sequence (Q9Y286 19-467 F48A limits assumed): as the sequence (Q9Y286 19-467) above, with F30A counted along it
T9 sequence (Q9Y286 19-467 Q31A limits assumed): as the sequence (Q9Y286 19-467) above, with Q13A counted along it
T5 sequence (Q9Y286 19-467 R45A limits assumed): as the sequence (Q9Y286 19-467) above, with R27A counted along it
T3 sequence (Q9Y286 19-467 K104A limits assumed): as the sequence (Q9Y286 19-467) above, with K86A counted along it
T14 sequence (Q9Y286 19-467 W74A limits assumed): as the sequence (Q9Y286 19-467) above, with W56A counted along it
T11 sequence (Q9Y286 19-467 I72A limits assumed): as the sequence (Q9Y286 19-467) above, with I54A counted along it

Kd [3]: 0.6 nM | Percent Siglec-7 Surface Expression, DCs [4]: 10.5% | Percent Siglec-7 Surface Expression, Monocytes [4]: 30.9% | Percent Siglec-7 Surface Expression, U937 cells [4]: 83.8% | Percent Siglec-7 Surface Expression, Macrophages [5]: 9.2% | Percent Siglec-7 Surface Expression, NK cells [5]: 74.7% | Percent RBC Binding to Siglec-7 [6]: 111% | % Positive [7]: 99.1% | MFI [7]: 523 | % Positive [8]: 99.7% | MFI [8]: 3280 | % Positive [9]: 99.5% | MFI [9]: 897
B2: anti-Siglec-7 antibody 10G8 (antibody, V domains shown)
VH: EVKLVEFGGALVKPGGSLKLSCAALGFTFSTYAMFRVRQTPEKREEGVASISSGGRYTYYPDSAKDRHPIFRDNARNTLYLQMSSLRSKDTAMYYCVRHSYGSSYWYLDVWGAGTTVTVSS
VL: DIQMTQFPATLSGTPGDRVZLSRRASQSIREYLHWYQQKSHESPRLZIKFASQSICGIPSRFSGSGSGSDFTLSINTVEPEDVGVYYCQKAHNFPYTFGGGTKLEIK
notes: Variable domains assembled from FR and CDR entries

Percent Siglec-7 Surface Expression, DCs [4]: 98.1% | Percent Siglec-7 Surface Expression, Monocytes [4]: 29.3% | Percent Siglec-7 Surface Expression, U937 cells [4]: 84.6% | Percent Siglec-7 Surface Expression, Macrophages [5]: 14.1% | Percent Siglec-7 Surface Expression, Microglia [5]: 23% | Percent Siglec-7 Surface Expression, NK cells [5]: 126% | Percent RBC Binding to Siglec-7 [6]: 11.6% | % Positive [7]: 99.3% | MFI [7]: 512 | % Positive [8]: 99.5% | MFI [8]: 15500 | Kd [12]: 0.4 nM | % Positive [9]: 99.7% | MFI [9]: 5750
B4: anti-Siglec-7 antibody 2G4 (antibody, V domains shown)
VH: QVQLQQSGSELRSPGSSVKLSCKDFDSEVFPITYMNWVRQKPGHGFEWIGDILPSIGRTMYGEKFEDKATLDADTVSNTAYLELNSLTSEDSAIYYCARSEGYLLAYWGQGTLVTVSA
VL: DIQMTQSLSYLSVSLGGRVTITCKASDHINNWLAWYQQKPGNAPRLLISGATSLETGFPSRFSGSGSGKDYTLSITSLQTEDVATYYCHQYWNTPYTFGGGTRLEIK
notes: as for B2

Further lines, the binder ahead of its results:

B1: 4E3 Fab (Fab, V domains shown)
VH: EVQLVESGGALVKPGGSLKISCAVSGFIFSNYDMSWVRQNPEKRLEWVATISSGGGYTYYPDSVKGRFTISRDNAKNALYLQMSSLRSEDTALYYCTRHGYGNYDWYFDVWGAGATVTVSS
VL: QIVLTQSPAILSASPGEKVTMTCSANSSFTYMYWYQQKPGSSPRLLIFDTSNLASGVPIRFSGSGSGTSYSLTISRMEAEDTATYYCQQWSSSPLTFGAGTKLELK
Binding Reactivity (% WT) (M30A): 123 % WT | Binding Reactivity (% WT) (M185A): 91.6 % WT | Binding Reactivity (% WT) (K104A): 115 % WT | Binding Reactivity (% WT) (S47A): 103 % WT | Binding Reactivity (% WT) (R45A): 129 % WT | Binding Reactivity (% WT) (R124A [1]): 1 % WT | Binding Reactivity (% WT) (N81A): 22 % WT | Binding Reactivity (% WT) (F48A): 146 % WT | Binding Reactivity (% WT) (Q31A): 112 % WT | Binding Reactivity (% WT) (Y50A): 139 % WT | Binding Reactivity (% WT) (I72A): 26.5 % WT | Binding Reactivity (% WT) (T107A): 124 % WT | Binding Reactivity (% WT) (V44A): 115 % WT | Binding Reactivity (% WT) (W74A): 25.7 % WT | binding result (R124A [2]): no binding

B3: anti-Siglec-7 antibody 1E8 (antibody, V domains shown)
VH: QVQLQQSGAELVRPGASVKLSCSASGFNIKGSLLHWIKQRPLQGLEWIGWIDPEDGETRFDPKFQDKAFLTADTSSTTAYLQLSSLTSEDTAIYYCARTEYSNPAWFAYWGQGTLVTVSA
VL: DIQMTQFPATLSVTPGDRVSLSCRASQSISDYLHWYQHKSHESPRLLIKYASQSISGIPSRFSGSGSGWDFTLSINSVEPEDVGIYYCQKGLNFPLTFGGGTKLEMK
Percent Siglec-7 Surface Expression, DCs [4]: 23% | Percent Siglec-7 Surface Expression, Monocytes [4]: 36.7% | Percent Siglec-7 Surface Expression, U937 cells [4]: 114% | Percent Siglec-7 Surface Expression, Macrophages [5]: 9.1% | Percent Siglec-7 Surface Expression, Microglia [5]: 41.3% | Percent Siglec-7 Surface Expression, NK cells [5]: 144% | Percent RBC Binding to Siglec-7 [6]: 16.4% | Kd [10]: 0.017 nM | % Positive [7]: 99.3% | MFI [7]: 428 | % Positive [8]: 99.5% | MFI [8]: 5450 | % Positive [9]: 99.7% | MFI [9]: 2940 | Kd [11]: 0.017 nM
